Assay results taken from patent publication US20250043302A1, “MUTATED HYDROXYPHENYLPYRUVATE DIOXYGENASE POLYPEPTIDE, AND CODING GENE AND USE THEREOF” (BEIJING DABEINONG BIOTECHNOLOGY CO., LTD., priority 2021, published 2025).

Columns and labels:
Assay type in all cases: in vivo
soybean T1 plants [1] = experiment: Mesotrione tolerance of transgenic soybean T1 plants; settings: different concentrations
[2] = test system: Arabidopsis thaliana T1 plants; experiment: Mesotrione tolerance of transgenic Arabidopsis thaliana T1 plants (spray, bleached leaf area grade, damage score); design: Scores: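 damage score 0-100 computed as Σ(N×S)/(T×M)×100 over grades 0-3 with higher meaning more damage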; settings: Arabidopsis thaliana T1 plants; for Grade 0 (classification and statistics of the grade of pesticide damage; number of plants) / Grade 1 (classification and statistics of the grade of pesticide damage; number of plants) / Grade 2 (classification and statistics of the grade of pesticide damage; number of plants) / Grade 3 (classification and statistics of the grade of pesticide damage; number of plants): 16 plants
Summary of the method: (§1)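 T1 transformants selected by glufosinate; 18-day-old plants, with empty-vector and wild-type controls, sprayed with topramezone (25–200 g ai/ha), isoxaflutole (35–280 g ai/ha) or mesotrione (52.5–420 g ai/ha), water as 0×. Bleached leaf area fraction scored at 7 DAT as grades 0–3.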

soybean T1 plants [3] = experiment: Topramezone tolerance of transgenic soybean T1 plants; settings: different concentrations
Protocol: T1 transformants were initially selected from the untransformed seeds using a glufosinate selection scheme. […] The degree of damage caused by the herbicide was measured for each plant according to the proportion of bleached leaf area (the proportion of bleached leaf area=bleached leaf area/total leaf area×100%) 7 days after spraying (7 DAT): the case where there is basically no bleached phenotype is defined as grade 0, the case where the proportion of bleached leaf area is less than 50% is defined as grade 1, the case where the proportion of bleached leaf area is more than 50% is defined as grade 2, and the case where the proportion of bleached leaf area is 100% grade is defined as grade 3.
The soybean T1 plants into which the SbHPPD-02 nucleotide sequence was introduced, soybean T1 plants into which the SbHPPDm-F372A-02 nucleotide sequence was introduced, soybean T1 plants into which the SbHPPDm-F383W-02 nucleotide sequence was introduced, soybean T1 plants into which the SbHPPDm-F372A-F383W-02 nucleotide sequence was introduced, soybean T1 plants into which the control vector DBN11726N nucleotide sequence was introduced, and wild-type soybean plants (V3-V4 at seedling stage) were sprayed with topramezone at three different concentrations (i.e., 25 g ai/ha (one-fold field concentration, 1×). […] According to the method in point 6 of Example 1, after 7 days of spraying (7 DAT), the damage degree of each plant by the herbicide was statistically analyzed, and the scoring and resistance evaluation were carried out accordingly. […]

[4] = test system: Arabidopsis thaliana T1 plants; experiment: Topramezone tolerance of transgenic Arabidopsis thaliana T1 plants (spray, bleached leaf area grade, damage score); settings: 7 DAT, Table 4; for Classification and statistics of the grade of pesticide damage: Grade 0 / Classification and statistics of the grade of pesticide damage: Grade 1 / Classification and statistics of the grade of pesticide damage: Grade 2 / Classification and statistics of the grade of pesticide damage: Grade 3: number of plants; for Scores: pesticide damage score 0-100
Summary of the method: as §1

[5] = test system: Arabidopsis thaliana T1 plants; experiment: Isoxaflutole tolerance of transgenic Arabidopsis thaliana T1 plants (spray, bleached leaf area grade, damage score); design: Scores (pesticide damage): scale not given here; settings: spray, Arabidopsis thaliana T1 plants; for Classification and statistics of the grade of pesticide damage: Grade 0 (number of plants) / Classification and statistics of the grade of pesticide damage: Grade 1 (number of plants) / Classification and statistics of the grade of pesticide damage: Grade 2 (number of plants) / Classification and statistics of the grade of pesticide damage: Grade 3 (number of plants): 16 plants
Summary of the method: as §1

soybean T1 plants [6] = experiment: Isoxaflutole tolerance of transgenic soybean T1 plants; settings: different concentrations
[7] = isoxaflutole 35 g ai/ha (0.5x field concentration)
[8] = isoxaflutole 70 g ai/ha (1x field concentration)

B1: SbHPPDm-F372A-F383W-02: nucleotide sequence encoding Sorghum bicolor HPPD with F372A+F383W; vector DBN11761 (nucleic acid)
DNA: ATGCCGCCCACTCCAACAACTGCTGCTGCGACGGGAGCAGCTGTCGCCGCTGCTTCTGCTGAGCAGGCTGCCTTCAGGCTCGTCGGGCACAGAAATTTTGTTCGTGTAAATCCAAGGAGTGATAGGTTCCACACCTTGGCTTTTCACCACGTGGAGTTGTGGTGTGCTGATGCAGCCTCGGCAGCGGGGCGCTTCTCGTTTGGTCTCGGTGCTCCGCTCGCCGCAAGATCTGATCTTAGCACTGGAAACACAGCGCATGCCTCCCTGCTCCTGCGCTCTGGCGCGCTGGCGTTCCTCTTCACGGCGCCATATGCTCACGGCGCCGACGCCGCCACCGCGTCATTGCCGTCTTTTAGTGCAGCCGAAGCAAGAAGATTTGCAGCAGACCACGGCCTCGCCGTAAGGGCCGTGGCCTTACGTGTCGCCGATGCCGAAGATGCTTTCCGCGCCTCTGTAGCAGCTGGAGCAAGGCCAGCATTTGAACCTGTTGAATTGGGGTTAGGATTCCGTCTTGCAGAAGTTGAGCTTTATGGCGACGTTGTTTTGAGATACGTTTCATATCCTGATGACGCTGACGCTAGCTTCTTGCCTGGTTTTGTGGGGGTGACATCACCTGGGGCAGCAGATTATGGTCTCAGGCGGTTTGATCATATTGTTGGAAACGTTCCTGAACTCGCGCCGGCGGCAGCCTACTTCGCCGGTTTCACTGGGTTTCATGAATTTGCTGAATTCACAGCCGAGGATGTCGGCACCACCGAGAGTGGACTGAACTCCATGGTGCTGGCCAACAATGCAGAGAATGTCCTTCTTCCCTTGAATGAACCAGTTCATGGAACAAAAAGGCGTTCCCAAATACAAACATACCTCGACCATCATGGTGGACCAGGCGTTCAGCATATGGCTCTCGCTAGTGACGATGTTCTACGAACCCTGCGAGAGATGCAGGCGCGGTCTGCAATGGGAGGATTTGAGTTCATGGCACCTCCTGCCCCTGAATATTATGATGGTGTTCGGAGAAGGGCAGGTGATGTGCTAACTGAAGCTCAAATCAAGGAGTGCCAGGAGCTTGGCGTGCTGGTCGATCGGGATGATCAAGGTGTGCTTCTGCAGATTGCCACTAAACCAGTGGGTGACCGCCCCACGCTGTGGCTAGAGATCATCCAGAGAATAGGGTGCATGGAGAAGGACGAAAAAGGACAAGAGTACCAGAAGGGAGGTTGTGGCGGCTTTGGAAAAGGGAACTTCTCCCAATTATTCAAGTCAATTGAAGACTATGAAAAGAGTTTGGAGGCTAAGCAAGCTGCAGCCGCCCAGGGCAGCTGA
modifications: SbHPPDm-F372A-F383W-02 Nucleotide Sequence
notes: vector DBN11761
**Q.** Which “tolerance to HPPD-inhibitor herbicides (in words): mesotrione” value (soybean T1 plants [1]) does the source give for B1 here?
**A.** The value was “different degrees of tolerance”.

**Q.** And the Resistance evaluation ([2]; mesotrione 52.5 g ai/ha)?
**A.** Its Resistance evaluation is “Highly resistant”.

**Q.** And the Scores ([2]; mesotrione 52.5 g ai/ha)?
**A.** Its Scores is 13.

**Q.** And the “Grade 0 (classification and statistics of the grade of pesticide damage; number of plants)” value ([2]; mesotrione 52.5 g ai/ha)?
**A.** The value was 10.

**Q.** And the “Grade 1 (classification and statistics of the grade of pesticide damage; number of plants)” value ([2]; mesotrione 52.5 g ai/ha)?
**A.** The value was 6.

**Q.** And the “Grade 2 (classification and statistics of the grade of pesticide damage; number of plants)” value ([2]; mesotrione 52.5 g ai/ha)?
**A.** The value was 0.

**Q.** And the “Grade 3 (classification and statistics of the grade of pesticide damage; number of plants)” value ([2]; mesotrione 52.5 g ai/ha)?
**A.** The value was 0.

**Q.** And the Resistance evaluation ([2]; mesotrione 105 g ai/ha)?
**A.** The Resistance evaluation was “Poorly resistant”.

**Q.** And the Scores ([2]; mesotrione 105 g ai/ha)?
**A.** Its Scores is 38.

**Q.** What about the “Grade 0 (classification and statistics of the grade of pesticide damage; number of plants)” value ([2]; mesotrione 105 g ai/ha) of the same molecule?
**A.** The value was 0.

**Q.** And the “Grade 1 (classification and statistics of the grade of pesticide damage; number of plants)” value ([2]; mesotrione 105 g ai/ha)?
**A.** Its value is 14.

**Q.** What about the “Grade 2 (classification and statistics of the grade of pesticide damage; number of plants)” value ([2]; mesotrione 105 g ai/ha) of the same molecule?
**A.** The value was 2.

**Q.** And the “Grade 3 (classification and statistics of the grade of pesticide damage; number of plants)” value ([2]; mesotrione 105 g ai/ha)?
**A.** Its value is 0.

**Q.** What about the “tolerance to HPPD-inhibitor herbicides (in words): topramezone” value (soybean T1 plants [3]) of the same molecule?
**A.** Its value is “different degrees of tolerance”.

**Q.** What about the “Classification and statistics of the grade of pesticide damage: Grade 0” value ([4]; topramezone 25 g ai/ha (1×)) of the same molecule?
**A.** Its value is 16.

**Q.** And the “Classification and statistics of the grade of pesticide damage: Grade 1” value ([4]; topramezone 25 g ai/ha (1×))?
**A.** Its value is 0.

**Q.** And the “Classification and statistics of the grade of pesticide damage: Grade 2” value ([4]; topramezone 25 g ai/ha (1×))?
**A.** The value was 0.

**Q.** And the “Classification and statistics of the grade of pesticide damage: Grade 3” value ([4]; topramezone 25 g ai/ha (1×))?
**A.** Its value is 0.

**Q.** And the “Classification and statistics of the grade of pesticide damage: Grade 0” value ([4]; topramezone 100 g ai/ha (4×))?
**A.** Its value is 9.

**Q.** And the “Classification and statistics of the grade of pesticide damage: Grade 1” value ([4]; topramezone 100 g ai/ha (4×))?
**A.** The value was 7.

**Q.** And the “Classification and statistics of the grade of pesticide damage: Grade 2” value ([4]; topramezone 100 g ai/ha (4×))?
**A.** Its value is 0.

**Q.** And the “Classification and statistics of the grade of pesticide damage: Grade 3” value ([4]; topramezone 100 g ai/ha (4×))?
**A.** The value was 0.

**Q.** What about the Scores ([4]; topramezone 25 g ai/ha (1×)) of the same molecule?
**A.** Its Scores is 0.

**Q.** What about the Scores ([4]; topramezone 100 g ai/ha (4×)) of the same molecule?
**A.** The Scores was 15.

**Q.** And the Resistance evaluation ([4]; topramezone 25 g ai/ha (1×))?
**A.** The Resistance evaluation was “highly”.

**Q.** And the Resistance evaluation ([4]; topramezone 100 g ai/ha (4×))?
**A.** The Resistance evaluation was “highly”.

**Q.** What about the Resistance evaluation [5, 7] of the same molecule?
**A.** Its Resistance evaluation is “Highly”.

**Q.** And the “Scores (pesticide damage)” value [5, 7]?
**A.** The value was 8.

**Q.** What about the “Classification and statistics of the grade of pesticide damage: Grade 0 (number of plants)” value [5, 7] of the same molecule?
**A.** The value was 12.

**Q.** What about the “Classification and statistics of the grade of pesticide damage: Grade 1 (number of plants)” value [5, 7] of the same molecule?
**A.** Its value is 4.

**Q.** What about the “Classification and statistics of the grade of pesticide damage: Grade 2 (number of plants)” value [5, 7] of the same molecule?
**A.** Its value is 0.

**Q.** What about the “Classification and statistics of the grade of pesticide damage: Grade 3 (number of plants)” value [5, 7] of the same molecule?
**A.** The value was 0.

**Q.** And the Resistance evaluation [5, 8]?
**A.** Its Resistance evaluation is “Highly”.

**Q.** What about the “Scores (pesticide damage)” value [5, 8] of the same molecule?
**A.** The value was 13.

**Q.** What about the “Classification and statistics of the grade of pesticide damage: Grade 0 (number of plants)” value [5, 8] of the same molecule?
**A.** Its value is 10.

**Q.** What about the “Classification and statistics of the grade of pesticide damage: Grade 1 (number of plants)” value [5, 8] of the same molecule?
**A.** Its value is 6.

**Q.** What about the “Classification and statistics of the grade of pesticide damage: Grade 2 (number of plants)” value [5, 8] of the same molecule?
**A.** Its value is 0.

**Q.** And the “Classification and statistics of the grade of pesticide damage: Grade 3 (number of plants)” value [5, 8]?
**A.** The value was 0.

**Q.** And the “tolerance to HPPD-inhibitor herbicides (in words): isoxaflutole” value (soybean T1 plants [6])?
**A.** The value was “different degrees of tolerance”.
